Test results: the nanobody polyreactivity screen of Harvey et al. (2022)

Assay: yeast display, Sf9 membrane polyspecificity reagent, FACS + sequencing; frameworks hold sequencing errors
Summary of the method: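 Galactose-induced (36–48 hours) yeast carrying a synthetic nanobody display library were exposed to 10% biotinylated, detergent-solubilized Sf9 membrane reagent at 4 °C for 1 hour. FACS followed streptavidin microbead enrichment, using low and high (top ~1%) gates for expression (anti-HA) and reagent binding (streptavidin). Colony PCR, MiSeq 2 × 250 sequencing and CDR-length filtering followed. Labels for polyreactivity reflect the gate of origin.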

Sequence: QVQLVESGGGLVQAGGSLRLSCAASGNIFDQNAMGWYRQAPAKERELVAAITRSGSTTYYADSVKGRFTISRDNAKNTVYLQMNSLKPEDTAVYYCAAKVYAYRTYKMYYWGEGTQVTVSS
- polyreactivity (PSR sort gate): high polyreactivity

Sequence: QVQLVESGGGLVQAGGSLRLSCAASGFIFAYYAMGWYRQAPGKERELVAAISSSGGSTYYADSVKGRFTISRDNAKNTVYLQMNSLKPEDTAVYFCNRRWVAPYFYSRYYSGQEEGYWGQGTQVTVSS
- polyreactivity (PSR sort gate): high polyreactivity

Sequence: QVQLVESGGGLVQAGGSLRLSCAASGRIFNSNTMGWYRQAPGKERELVAAIRGSGGSTYADSVKGRFTISRDNAKNTVYLQMNSLKPEDTAVYYCAASPRRWYTPDAVSTYRMYYWGQGTQVTVSS
- polyreactivity (PSR sort gate): high polyreactivity

Sequence: QVQLVESGGGLVQAGGSLRLSCAASGRIFYRYAMGWYRQAPGKERELVADITWRGGRTYYADSVKGRFTISRDNAKNTVYLQMNSLKPEDTAVYYCAATGGFYYWGQGTQVTVSS
- polyreactivity (PSR sort gate): low polyreactivity

Sequence: QVQLVESGGGLVQAGGSLRISCAASGFIFTYYAMGWYRQAPGKERELVAAITKSGTSTYYADSVKGRFTISRDNAKNTVYLQMNSLKPEDTAVYYCNAVLWWDWEYDFYYWGQGTQVTVSS
- polyreactivity (PSR sort gate): high polyreactivity

Sequence: QVQLVESGGGLVQAGGSLRLSCAASGFTIRWYTMGWYRQAPGKERELVAAISRGGSTNYADSVKGRFTISRDNAKNTVYLQMNSLKPEDTAVYYCATSAPLVTSSGYGYWGQGTQVTVSS
- polyreactivity (PSR sort gate): high polyreactivity

Sequence: QFQLVESGGGFVQAGGSLRLSCAASGSIFLYNDMGWYRQAPGKERELVPAITSDGSTNYADSVKGRFTISRDNAKNTFYLQMNSLKPEDTAVYYCAADALWFYLNWYYGGTAYGYWGQGTQVTVSS
- polyreactivity (PSR sort gate): low polyreactivity

Sequence: QVQLVESGGGLVQAGGSLRLSCAASGSIFYTNAMGWYRQAPGKERELVAVITASGGSTYYADSVKGRFTISRDNAKNTVYLQMNSLKPEDTSVYYCAADPVFNYDYWGQGTQVTVSS
- polyreactivity (PSR sort gate): low polyreactivity

Sequence: QVQLVESGGGLDQAGGSLRLSCAASGSIFGRNAMRWYRQAPGKERELVAAITGYTYYADSVKGRFTISRDNAKNTVYLQMNSLKPEDTAVYYINADHDVGWTYDTEYNYWGQGTQVTVSS
- polyreactivity (PSR sort gate): low polyreactivity

Sequence: QVQLVESGGGLVQAGGSLRLSCAASGSTFTPYAMGWYRPAPGKEREFVAAITSIGGSTYYADSVKGRFTISRDHAKFTVYLQMNSLKPEDTAVYYCAADYYEWSLWNDYWGQGTQVTVSS
- polyreactivity (PSR sort gate): high polyreactivity

Sequence: HVQLVESGGGLVQAGGSLRLSCAASGFTFPANAMGWYRQAPGKERELVAAISSSGGTYYADSVMGRFTISRDNAKNTVYLQMTSLKQEDTAVYYCAAYRFKYYYWGQGTQVSVSS
- polyreactivity (PSR sort gate): high polyreactivity

Sequence: QVQLVESGGCLVQAGGSLSLSCAASGRIFGAYAMGWYRQAPGTERELVAAISSGGSTYYADSVKGRFTISRDNAKNTVYLQMNSLKPEDTAVYYCAASSGNGYGYWGQGTQVTVSS
- polyreactivity (PSR sort gate): high polyreactivity

Sequence: QVHLVESGGGLVQAGGSLRLSCAASGSISVWYVIVWYRQAPGKERELVAAITRSGGSTFYADSVKGRFTISRDNAKNTVYLQMNSLKPEDTAVYYCAASFRDDFPQRLDYWGQGTQVTVSS
- polyreactivity (PSR sort gate): low polyreactivity

Sequence: QVQLVESGGGLVQAGGSLRLSCAASGSTSQYYAMGWYRQAPGKERELVAVISWSGGSTYYADSVKARFTISRDNAKNTVYLEMNSLKPEDTAVYYCAARYRRRVIATRDYWGQGTQVTVSS
- polyreactivity (PSR sort gate): high polyreactivity

Sequence: QVQLVESGGGLVQAGGSLRLSCAASGITFTVYTMGWYRQAPGKERELVAAITTSGTTTYYADSVKGRFTISRDNAKNTVYLQINSLKPEDTAVYYCAARQVWGEGVKSYYWGQGTQVTVSS
- polyreactivity (PSR sort gate): high polyreactivity

Sequence: QVQLVESVGGLVQAGGSLRLSCAASGSTFYSYSMGWYRQEPGKERELVAAISWNGGSTYYADSVKGRFTISRDNAKNTVYFQMNSLKPEVTAVYYCAARGGYPYWRYYRFYKMDYWGQGTQVTVSS
- polyreactivity (PSR sort gate): low polyreactivity

Sequence: QVQLVESGAGLVQAGGSLRLSCAASGRIFVYNTMGWYRQAPGKEREFVAAITRSGGSTTYADSVKGRFTISRANAKNTVYLQRNSLKPEDTAVYYCAAGPFISYWVSRFGYWGQGTQVTVSS
- polyreactivity (PSR sort gate): high polyreactivity

Sequence: QVQLVESGGGLVQAGGSLRLSCAASGSTFYWNGMGWYRQAPGKERELVAAITKSGSRTYYADSVKGRFTISRDNAKNTVYLQMNSLKPEDTAVYYCAAVNYIYTGGGTYYYWGQGTQVTVSS
- polyreactivity (PSR sort gate): high polyreactivity

Sequence: QVQLVESGGGLVQAGGSLRLSCAASGRIFEDNGMGWYRQAPGKEREFVATISWDGDRTYYADSVKGRFTISRDNAKNTVYFQMNSLKPEDTAVYYCNADLPLWPFRGYEYWGQGTQVTVSS
- polyreactivity (PSR sort gate): low polyreactivity

Sequence: QVQLVESGGGLVQAGGSLRLSCAASGRTFGLYAMRWYIQAPGKERELVAAIRGSAGSTYYADSVKGRFTISRDNAKNTVYLQMNSLKPEDTAVYYCATGGYPSLWYGYGYWGQGTQVTVSS
- polyreactivity (PSR sort gate): low polyreactivity

Sequence: QVQLVESGGGLVQAGGSLRLSCAASGSTFRYNTMGWYRQAPGKERELVARITSVGSTNYADSVKGRFTISRDNAKNTVYLQMNSLKPEDTAVYYCATTRPIRRTSARYNYWGQGTQVTVSS
- polyreactivity (PSR sort gate): low polyreactivity

Sequence: QVQLVESGGGLVQAGGSLRLSCAASGITFQKYVMGWYRQAPGKEREFVAAITARGGTTYYADSVKGRFTISRDNAKNTVYLQMNSLKPEDTAVYYCAADLRRFQSYYYWGQGTQVTVSS
- polyreactivity (PSR sort gate): high polyreactivity

Sequence: QVQLVESGGGLVQAGGSLRLSCAASGSTFIFNAMGWYRQAPGKEWELVAGISSGSTYYADSVKGRFTISRDNAKNTVYLQMNSLKPEDTAVYYCATKLRRWRFYAAYDYWGQGTQVTVSS
- polyreactivity (PSR sort gate): high polyreactivity

Sequence: QVQLVESGGVLVQAGGSPRLSCAASGRTYAYYPMGWYRQAPGKERELVARITRGGSTYYADSVKGRFTISRDNAKNSVYLQMYSLIPDDTAVYYCNRYQWQHYTSVYLRTGSDYWGQGTQVTVSS
- polyreactivity (PSR sort gate): high polyreactivity

Sequence: QVQLGESGGGLVQAGGSLRLSCAASGRIFNVNVMGWYRQAPGKDMELVAAITSGGSTNYADSVKGRFTISRDNAKNTVYLQMNSLKPEDTAVYYCAKDYQYGFGEYPYDYWGQGTQVTVSS
- polyreactivity (PSR sort gate): low polyreactivity

Sequence: QLQLVESGGGLVQAGGSLRLSCAASGITFYVYAMGCYRQAPGKERELVAAISTSGGSTYYADSVKGRFTISRDNAKNTVYFQMNSLKPEDTAVYYCAAEELRYGLYEYDYWGQGTQVTVSS
- polyreactivity (PSR sort gate): high polyreactivity

Sequence: QVQLVESGGGLVQAGGSLRLSCAASGGTFAGYAMGWYRLAPGKERELVAAISWSSGRTYYADSVKGRFTISRDNAKNTVYLQMNSLKPEDTAVYYCNVLRYRGYDYWGQGTQVTVSS
- polyreactivity (PSR sort gate): high polyreactivity

Sequence: QVQLVESGGGLVQAGGSLRLSCAASGRIFPIYAMGWYRQAPGKERELVAAISRTDGTTYYADSVKGRFTISRDYANNTVYLQMNSLKPEDTAVYYCAADYLRAPYYQYEYWGQGTQVTVSS
- polyreactivity (PSR sort gate): low polyreactivity

Sequence: QDQLVESGGGLVQAGGSLRLSCAASGSIFYAYTMGWYRQAPGKEMELVASITKSGGSTYYADSVKGRFTISRDNAKNTVYLQMNSLKPEDTAVYYCAAVVGRNRTRSYGYWGQGTQVTVSS
- polyreactivity (PSR sort gate): high polyreactivity

Sequence: QVQLVESGGGLVQAGGSLRLSCAASGLTFIVYAMAWYRQAPGKERELVADITWSGGSTYYADSVKGRFTISRDNAKNTVYLQMNSLKPEDTAVYYCNRQSAKIMDYWGQGTQVTVSS
- polyreactivity (PSR sort gate): low polyreactivity

Sequence: QGQHVESGGGLVQAGGSLRLSSAASGITISYYGMGWYRQERGKDRELVASITKRGGRTYYADSVKGRFTISRDNAKNTVYLQMNSLKPEETAVYYCAADRAAPRYDYWGQGTQVTVSS
- polyreactivity (PSR sort gate): high polyreactivity

Sequence: QVQLVESGGGLVQAGGSLRLSCAASGSTFEYYAMGWYRQAPGKERELVAVITNGGSTNYADSVKGRFTISRDNAKNTVYLQKNSLKPEDTAVYYCNAERRVFYYFDYDFWGLGTQVTVSS
- polyreactivity (PSR sort gate): low polyreactivity

Sequence: QVQLVESGGGLVQAGGSLRLSCADSGRIFDVNDKRSYRQAPGKERELVAAITYSGTDTYYADSVKGRFTISRDNAKNTVYLQMNSLKPEDTAVYYCAAEFTGWEYIGRDYWGQGTQVTVSS
- polyreactivity (PSR sort gate): low polyreactivity

Sequence: QVQLVESGGGLVQAGGSLRLSCAASGFIFSRNAMGWYRQAPGKERELVASITRRGGSKYYADSVKGRFTISRDYAKNTVYLQMNSLKPEDTAVYYCAADGYVRPPEMDYWGQGTQVTVSS
- polyreactivity (PSR sort gate): high polyreactivity

Sequence: QVQLVESGGGLVQAGGSLRLSCAASGFIFRLYAMGWYRQAPGKERELVAAISRGGSTTYADSVKGRFTISRDNAKNTVYLQMNSLKPEDTAVYYCATEGDYVAYLYDYWGQGTQVTVSS
- polyreactivity (PSR sort gate): low polyreactivity

Sequence: QVQLVESGGGLVQAGGSLRLSCAASGSTFPTNAMGWYRQAPGKERELVAAISQRGDSTSYADSVKGRFTISRDNAKNTVYLQMNSLKPEDTAVYFCAVDAYSYYDSTWFWYDYWGQGTQVTVSS
- polyreactivity (PSR sort gate): high polyreactivity

Sequence: QVQLVESGGGLVQAGGSLRLSCAASGSIFAYYAMGWYRQAPGKERELVAAISRRGGSTYYADSVKGRFTISRDNAKNTGYLQMNSLQPEDTAVYYCAADIGPRYDSWGLGTQVTVSS
- polyreactivity (PSR sort gate): high polyreactivity

Sequence: QVQLVESGGGLVQAGGSHGLSCAASGSTFYYNAMGWYRPAPGKERELVARISRSGGSTYADSVKGRFTISRDNAKNTVYLLMNSLKPEDTAVYYCNADAYGTPEFTSYAVRYDHWGQGTQETVSS
- polyreactivity (PSR sort gate): low polyreactivity

Sequence: QVQLVESGGGLVQAGGSLRLSCAASGSTFGLYAMGWYRQAPGKERELVAAISSGGSTYYADSVKGRFTISRDNAKNTVYLQMNSLKPEDTAVYYCATGYWAYTIEYYYWGQGTQVTVSS
- polyreactivity (PSR sort gate): low polyreactivity

Sequence: QVQLVESGGGLVQAGGSLRLSCAASGFICYFYAMGWYRQAPGKERELVAVITQSGGSTYYADSVKGRFTISRDNAKNTVYLQMNSLKPEDTAVYYCNADTVRYYPFFSVRYYYWGQGTQVTVSS
- polyreactivity (PSR sort gate): low polyreactivity

Sequence: QVQLVESGGGLVQAGGSLRLSCAASGFTFGYYALGWYRQAPGKERELVAAINYSGGSTYYADSVKGRFTISRDNAKNTVYLQMNSLKPEDTAVYYCAAQSYYGRGYWGQGTQVTVSS
- polyreactivity (PSR sort gate): high polyreactivity

Sequence: QVQLVESGGGLVQAGGSLRLSCAASGYIFRLYAMGWYRQAPGKERELVATITASGGTYYADSVKGRFTISRDNAKNTVYLQMNSLKPEDTAVYYCAAAKLRRLSRVRYGYWGQGTQVTVSS
- polyreactivity (PSR sort gate): high polyreactivity

Sequence: QLKLEESGGGLVQAGGSLRLSCAASGITFPWYAMGWYRQAPGKERELVAAINRAGNTNYADSVKGRFTISRDNAKNTVYLQRNSLKTEDTAVYYCAARWRYKYTLGYWGQGTQVTVSS
- polyreactivity (PSR sort gate): high polyreactivity
